Measured values reported in US20220135686A1 (SUNSHINE GUOJIAN PHARMACEUTICAL SHANGHAI, published 2022).
Where “and” joins values, the source holds several entries; their conditions need not be identical. Equal values may be shown once.

B1: Anti-PDL1 (antibody, human IgG1, kappa, V domains shown)
VH: QVQLQQSGGGLVKPSQSLSLTCTVSGFSLTSYGVHWVRQPPGKGLEWIGLIWSGGGTDYNPSLKSRLTISRDTSKNQVSFKISSLTAADTAVYYCARQLGLRAMDYWGQGTSVTVSS
VL: EIVLTQSPDFLSVTPKEKVTITCRASQSIGTTIHWYQQKPDQSPKLLIKYASQSFSGVPSRFSGSGSGTDFTLTINSVEAEDAATYYCQQSNSWPLTFGAGTKLEIKR
notes: Humanized from murine M8; human IgG1 / kappa; also called humanized anti-human PD-L1 antibody; Anti-PDL1-HC+Anti-PDL1-LC
B2: Anti-PDL1-HC+609-LC (antibody, human IgG1, kappa, V domains shown)
VH: QVQLQQSGGGLVKPSQSLSLTCTVSGFSLTSYGVHWVRQPPGKGLEWIGLIWSGGGTDYNPSLKSRLTISRDTSKNQVSFKISSLTAADTAVYYCARQLGLRAMDYWGQGTSVTVSS
VL: EIVLTQSPATLSLSPGERATLSCRASQSISNFLHWYQQKPGQAPRLLIKYASQSISGIPARFSGSGSGTDFTLTISSLEPEDFAVYFCQQSNSWPHTFGQGTKVEIKR
notes: also called hybrid antibody
B3: mAb1-25-Hu (609) (antibody, human IgG4 S228P, kappa, V domains shown)
VH: EVKLVESGGGLVQPGGSLRLSCAASGFAFSSYDMSWVRQAPGKRLEWVATISGGGRYTYYPDTVKGRFTISRDNAKNSHYLQMNSLRAEDTAVYFCASPYGGYFDVWGQGTLVTVSS
VL: EIVLTQSPATLSLSPGERATLSCRASQSISNFLHWYQQKPGQAPRLLIKYASQSISGIPARFSGSGSGTDFTLTISSLEPEDFAVYFCQQSNSWPHTFGQGTKVEIKR
notes: Humanized anti-human PD-1 monoclonal antibody, human IgG4 (S228P) / kappa
B4: 609-HC+Anti-PDL1-LC (antibody, human IgG4 S228P, kappa, V domains shown)
VH: EVKLVESGGGLVQPGGSLRLSCAASGFAFSSYDMSWVRQAPGKRLEWVATISGGGRYTYYPDTVKGRFTISRDNAKNSHYLQMNSLRAEDTAVYFCASPYGGYFDVWGQGTLVTVSS
VL: EIVLTQSPDFLSVTPKEKVTITCRASQSIGTTIHWYQQKPDQSPKLLIKYASQSFSGVPSRFSGSGSGTDFTLTINSVEAEDAATYYCQQSNSWPLTFGAGTKLEIKR
notes: also called hybrid antibody
B5: PDL1-Fab-609-IgG4 (bispecific antibody)
heavy: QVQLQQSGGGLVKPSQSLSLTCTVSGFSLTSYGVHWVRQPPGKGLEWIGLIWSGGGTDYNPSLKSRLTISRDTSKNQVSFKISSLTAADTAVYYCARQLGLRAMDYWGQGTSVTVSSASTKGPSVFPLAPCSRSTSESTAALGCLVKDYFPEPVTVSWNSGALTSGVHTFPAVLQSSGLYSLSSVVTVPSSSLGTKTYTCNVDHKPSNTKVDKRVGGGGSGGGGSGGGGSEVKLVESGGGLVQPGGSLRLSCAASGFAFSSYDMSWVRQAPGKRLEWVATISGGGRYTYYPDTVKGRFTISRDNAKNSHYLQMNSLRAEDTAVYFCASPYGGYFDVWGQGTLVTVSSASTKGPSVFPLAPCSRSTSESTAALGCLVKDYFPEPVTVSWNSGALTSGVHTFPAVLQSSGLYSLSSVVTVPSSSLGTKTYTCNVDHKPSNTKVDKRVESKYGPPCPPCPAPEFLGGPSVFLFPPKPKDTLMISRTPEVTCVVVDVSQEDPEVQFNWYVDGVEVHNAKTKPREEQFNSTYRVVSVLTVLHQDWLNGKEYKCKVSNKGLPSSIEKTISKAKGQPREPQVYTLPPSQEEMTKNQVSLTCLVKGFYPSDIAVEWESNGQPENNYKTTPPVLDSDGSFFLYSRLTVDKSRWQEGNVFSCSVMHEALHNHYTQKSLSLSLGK
light: EIVLTQSPDFLSVTPKEKVTITCRASQSIGTTIHWYQQKPDQSPKLLIKYASQSFSGVPSRFSGSGSGTDFTLTINSVEAEDAATYYCQQSNSWPLTFGAGTKLEIKRTVAAPSVFIFPPSDEQLKSGTASVVCLLNNFYPREAKVQWKVDNALQSGNSQESVTEQDSKDSTYSLSSTLTLSKADYEKHKVYACEVTHQGLSSPVTKSFNRGEC
notes: expressed with the common light chain Anti-PDL1-LC; also called tetravalent bispecific antibody against PD-1 and PD-L1
B6: 609-Fab-PDL1-IgG4 (bispecific antibody)
heavy: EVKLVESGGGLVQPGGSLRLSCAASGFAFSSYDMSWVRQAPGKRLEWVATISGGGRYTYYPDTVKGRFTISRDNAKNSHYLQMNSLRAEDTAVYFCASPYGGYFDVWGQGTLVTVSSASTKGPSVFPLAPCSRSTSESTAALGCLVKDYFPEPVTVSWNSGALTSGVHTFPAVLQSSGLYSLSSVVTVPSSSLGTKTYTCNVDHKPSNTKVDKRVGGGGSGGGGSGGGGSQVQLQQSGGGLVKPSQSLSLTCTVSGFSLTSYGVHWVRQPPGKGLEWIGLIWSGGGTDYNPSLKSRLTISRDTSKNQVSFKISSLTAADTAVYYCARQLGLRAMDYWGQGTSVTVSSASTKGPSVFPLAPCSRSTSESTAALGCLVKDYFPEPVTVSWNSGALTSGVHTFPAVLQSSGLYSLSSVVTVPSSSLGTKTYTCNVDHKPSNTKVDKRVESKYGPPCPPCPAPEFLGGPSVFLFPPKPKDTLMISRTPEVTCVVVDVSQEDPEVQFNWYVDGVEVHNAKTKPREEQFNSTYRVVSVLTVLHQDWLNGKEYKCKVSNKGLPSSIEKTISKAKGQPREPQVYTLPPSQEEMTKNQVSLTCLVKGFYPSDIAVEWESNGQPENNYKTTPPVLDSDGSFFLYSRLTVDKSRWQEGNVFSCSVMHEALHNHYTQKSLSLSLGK
light: EIVLTQSPDFLSVTPKEKVTITCRASQSIGTTIHWYQQKPDQSPKLLIKYASQSFSGVPSRFSGSGSGTDFTLTINSVEAEDAATYYCQQSNSWPLTFGAGTKLEIKRTVAAPSVFIFPPSDEQLKSGTASVVCLLNNFYPREAKVQWKVDNALQSGNSQESVTEQDSKDSTYSLSSTLTLSKADYEKHKVYACEVTHQGLSSPVTKSFNRGEC
notes: as for B5

Legend:
[1] = biological target: T1, PD-L1-His (human, UniProt Q9NZQ7 19-238); assay: ELISA, coated PD-L1-His
T1 construct: extracellular domain; Expressed in HEK293F; also called recombinant protein PD-L1-His; not shown: polyhistidine tag

[2] = biological target: T2, PD-L1-ECD-hFc (human, UniProt Q9NZQ7 19-238); assay: ELISA, coated PD-L1-ECD-hFc
T2 construct: extracellular domain; also called biotinylated PD-L1-ECD-hFc; not shown: Fc segment of human IgG1
Protocol: (§1) The plates were blocked with PBST containing 1% BSA. The antibodies to be tested were serially diluted, then transferred to the above plates coated with recombinant proteins, incubated at room temperature for half an hour and then the plates were washed; an appropriately diluted HRP-labeled goat anti-human antibody (Fc-Specific) (purchased from Sisgma) was added, incubated at room temperature for half an hour and then the plates were washed; chromogenic solution with TMB as a substrate was added at 100 μl/well, incubated at room temperature for 1˜5 min; 50 μl of stop solution (2M H₂SO₄) was added to stop the reaction. OD450 values were read with a microplate reader (SpectraMax 190). Graphing and data analysis were performed using GraphPad Prism6, and EC50 values were calculated.

[3] = biological target: T3, PD1-His (human, UniProt Q15116 25-170); assay: ELISA, plate coated with PD1-His 10 ng/well, OD450
T3 construct: extracellular domain; Expressed in HEK293F; also called recombinant protein PD1-His; not shown: polyhistidine tag

[4] = biological target: T4, PD1-ECD-hFc (human, UniProt Q15116 25-170); assay: ELISA, plate coated with PD1-ECD-hFc 10 ng/well, OD450
T4 construct: extracellular domain; also called Human PD-1-ECD-hFc; human PD1-ECD-hFc; not shown: Fc segment of human IgG1
Protocol: as §1

[5] = biological target: T1, PD-L1-His; assay: SPR (Biacore 8K), antibody captured on Protein A/G chip, PD-L1-His injected
Protocol: (§2) Herein, the affinity of the above antibodies to PD-1 or PD-L1 was determined by Biacore 8K (GE healthcare). On Biacore 8K, the chip coupled with Protein A/G was used to capture various antibodies, respectively, and then the recombinant protein PD1-His or PD-L1-His was injected to obtain the binding-dissociation curve, which was eluted with 6M guanidine hydrochloride regeneration buffer for next cycle. Data were analyzed using the Biacore 8K Evaluation Software.

[6] = biological target: T2, PD-L1-ECD-hFc; assay: competition ELISA: blocks biotinylated PD-L1-ECD-hFc binding to coated PD1-ECD-hFc
Protocol: Human PD-1-ECD-hFc was diluted to 2 μg/ml with sodium carbonate buffer (1.59 g Na₂CO₃ and 2.93 g NaHCO₃ dissolved in 1 L of pure water), and added into a 96-well ELISA plate with a multichannel pipette at 100 μl/well, incubated at room temperature for 4 h; washed once with PBST, blocked with PBST containing 1% BSA at 200 μl/well, incubated at room temperature for 2 h; the blocking solution was discarded, the plate was patted dry, and placed at 4° C. for later use. […] OD450 values were read with a microplate reader (SpectraMax 190). Graphing and data analysis were performed using GraphPad Prism6, and IC50 values were calculated.

[7] = biological target: T2, PD-L1-ECD-hFc; assay: ELISA, plate coated with PD-L1-ECD-hFc 10 ng/well, OD450
Protocol: as §1

[8] = biological target: T3, PD1-His; assay: ELISA, coated PD1-His
[9] = biological target: T4, PD1-ECD-hFc; assay: ELISA, coated PD1-ECD-hFc
Protocol: as §1

[10] = biological target: T3, PD1-His; assay: SPR (Biacore 8K), antibody captured on Protein A/G chip, PD1-His injected
Protocol: as §2

T3 sequence (Q15116 25-170): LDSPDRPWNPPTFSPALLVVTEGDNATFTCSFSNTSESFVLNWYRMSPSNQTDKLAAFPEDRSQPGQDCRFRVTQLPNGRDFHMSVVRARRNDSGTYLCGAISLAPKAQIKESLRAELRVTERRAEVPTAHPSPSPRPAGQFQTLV
T4 sequence (Q15116 25-170 limits assumed): as the sequence (Q15116 25-170) above
T1 sequence (Q9NZQ7 19-238): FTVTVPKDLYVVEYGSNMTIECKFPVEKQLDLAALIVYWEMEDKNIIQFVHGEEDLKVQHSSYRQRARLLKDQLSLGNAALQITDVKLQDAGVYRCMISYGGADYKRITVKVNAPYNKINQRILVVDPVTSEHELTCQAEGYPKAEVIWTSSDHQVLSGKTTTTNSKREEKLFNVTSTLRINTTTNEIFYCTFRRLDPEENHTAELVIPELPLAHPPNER
T2 sequence (Q9NZQ7 19-238 limits assumed): as the sequence (Q9NZQ7 19-238) above

Binder | EC50 [1] | binding result [4] | Kd [5] | koff [5] | kon [5] | EC50 [8] | Kd [10] | koff [10] | kon [10] | other results
B1 | 0.12 nM and 0.102 nM | no binding (tested: log10(nM) about 2.1 (about 130 nM)) | 0.843 nM | 0.00138 s⁻¹ | 1.63e+06 M⁻¹ s⁻¹ | – | – | – | – | EC50 [2]: 0.125 nM; binding result [3]: no binding (tested: log10(nM) about 2.4 (about 250 nM)); IC50 [6]: 1.37 nM
B2 | – | no binding (tested: log10(nM) about 2.1 (about 130 nM)) | – | – | – | – | – | – | – | –
B3 | – | – | – | – | – | – | – | – | – | binding result [7]: no binding (tested: log10(nM) about 2.1 (about 130 nM))
B4 | – | – | – | – | – | 0.382 nM | 34.9 nM | 0.00439 s⁻¹ | 126000 M⁻¹ s⁻¹ | EC50 [9]: 0.243 nM
B5 | 0.14 nM | – | – | – | – | 5.31 nM | – | – | – | –
B6 | 0.135 nM | – | 0.608 nM | 0.00112 s⁻¹ | 1.85e+06 M⁻¹ s⁻¹ | 0.421 nM | 25.7 nM | 0.00443 s⁻¹ | 173000 M⁻¹ s⁻¹ | –
